{"source": "patent US20240100133A1", "about": "“ENZYMATICALLY INACTIVE GRANZYME A AND USES THEREFORE” (Saint Louis University, priority 2022, published 2024)", "key": {"[1]": {"system": "mycobacteria within iMac CD14KO cells", "assay": "MGIA in iMac CD14KO cells", "format": "cell-based, mouse"}, "[2]": {"system": "BCG-GFP in human monocytes", "assay": "BCG-GFP protection experiments and kinetics by flow cytometry", "protocol": "Following treatment with GzmA and infection with mycobacteria, monocytes were first blocked with True Stain Fc blocker (Cat. #426101, Biolegend, San Diego, CA), and then permeabilized using permeabilization solution (Cat. #554715, BD Biosciences, San Diego, CA). Next, cells were incubated with anti-GzmA antibody conjugated with PE (Cat. #558904, BD Biosciences, San Diego, CA). A flow cytometer was then used to analyze BCG-GFP and GzmA-PE positive cells. FlowJo software was used for analysis."}, "[3]": {"target": "T1, CD14 (Homo sapiens, UniProt P08571)", "T1 sequence (P08571 20-345)": "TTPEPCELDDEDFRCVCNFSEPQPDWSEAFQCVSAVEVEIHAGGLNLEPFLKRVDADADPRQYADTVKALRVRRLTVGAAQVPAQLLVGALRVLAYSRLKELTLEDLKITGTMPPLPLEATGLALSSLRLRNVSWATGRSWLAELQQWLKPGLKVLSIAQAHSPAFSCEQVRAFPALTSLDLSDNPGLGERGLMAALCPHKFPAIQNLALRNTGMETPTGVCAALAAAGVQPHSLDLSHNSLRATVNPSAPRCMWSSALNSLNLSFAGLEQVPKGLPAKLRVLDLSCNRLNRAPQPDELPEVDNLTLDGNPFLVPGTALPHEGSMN", "assay": "Immunoprecipitation with anti-GzmA, probed for CD14", "conditions": "human monocyte lysates, infected and uninfected cells"}, "[4]": {"target": "PDIA1 (Homo sapiens, UniProt P07237)", "sequence (P07237 18-479)": "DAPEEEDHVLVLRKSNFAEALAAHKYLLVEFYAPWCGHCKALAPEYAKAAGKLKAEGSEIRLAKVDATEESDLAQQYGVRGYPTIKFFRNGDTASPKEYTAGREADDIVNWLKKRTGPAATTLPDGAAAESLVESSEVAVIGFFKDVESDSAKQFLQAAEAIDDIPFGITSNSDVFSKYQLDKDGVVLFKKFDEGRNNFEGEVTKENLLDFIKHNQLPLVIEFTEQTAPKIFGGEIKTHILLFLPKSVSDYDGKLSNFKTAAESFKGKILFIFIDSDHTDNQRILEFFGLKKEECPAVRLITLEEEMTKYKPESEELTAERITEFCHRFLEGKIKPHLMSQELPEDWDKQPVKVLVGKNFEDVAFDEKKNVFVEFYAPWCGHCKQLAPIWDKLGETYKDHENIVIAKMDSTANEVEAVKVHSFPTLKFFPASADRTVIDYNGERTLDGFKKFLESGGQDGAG", "assay": "Incubation of GzmA-WT with recombinant PDIA1 (silver stain, anti-GzmA WB)", "format": "biochemical", "parameters": "The cDNA of human PDIA1 (residues 18-479) was cloned into a pET-23 vector expression system; His-tag (N); made in house; host or cells: E. coli BL21(DE3)", "conditions": "fresh PDIA1; not present with heat-inactivated PDIA1", "method": "Expression and purification of human recombinant PDIA1. The cDNA of human PDIA1 (residues 18-479) was cloned into a pET-23 vector expression system. An N-terminal His-tag was engineered to facilitate purification. Sequence verified plasmids were transfected into BL21(DE3) cells. Cells were grown in LB medium until an OD600 of ˜0.6. Protein expression was induced with 0.5 mM IPTG. After overnight incubation at 37° C., cells were harvested by centrifugation. Soluble PDI protein was extracted by treating the cells with a nonionic detergent (B-PER, Thermo) followed by purification by affinity chromatography using a TALON resin as described before (Chinnaraj et al., 2021). Briefly, fractions eluted at 200 mM imidazole were pooled, dialyzed overnight in Tris 20 mM pH 7.4 145 mM NaCl to remove imidazole, and then loaded into size exclusion chromatography column 5200 10/300 (Cytiva) to isolate monomeric protein. Final protein concentrations were determined by measuring the absorbance at 280 nm, and using molar extinction coefficient of PDIA1 (i.e., 45755 M-lcm-1). Chemical identity was verified by mass spectrometry. Purify was >98%, as judged by SDS-PAGE."}}, "data": [{"molecule": "GzmA-WT: recombinant wild-type human Granzyme A, homodimeric serine protease, purified from HEK293T supernatants (protein, left off: small tags and cut ends, recombinant wild-type human Granzyme A, homodimeric serine protease, purified from HEK293T supernatants) IIGGNEVTPHSRPYMVLLSLDRKTICAGALIAKDWVLTAAHCNLNKRSQVILGAHSITREEPTKQIMLVKKEFPYPCYDPATREGDLKLLQLMEKAKINKYVTILHLPKKGDDVKPGTMCQVAGWGRTHNSASWSDTLREVNITIIDRKVCNDRNHYNFNPVIGMNMVCAGSLRGGRDSCNGDSGSPLLCEGVFRGVTSFGLENKCGDPRGPGVYILLSKKHLNWIIMTIKGAV", "values": [{"measurement": "inhibition of intracellular mycobacterial growth in CD14-deficient iMac cells", "setting": "[1]", "result": "incapable of inhibiting intracellular mycobacterial growth"}, {"measurement": "uptake and persistence of bacteria in treated cells with detectable GzmA", "setting": "[2]; GzmA detected in treated monocytes", "result": "least uptake and persistence of bacteria"}, {"measurement": "mycobacterial growth in treated cells without sufficient internalization of protein (GzmA-)", "setting": "[2]; GzmA- cells, over 18 h", "result": "reduced mycobacterial growth over time"}, {"measurement": "reduction in mycobacterial growth AUC", "setting": "[2]; cells treated and staining positive for GzmA, over 18 h", "result": 78, "unit": "%"}, {"measurement": "binding to CD14 (immunoprecipitation)", "setting": "[3]", "result": "bound to CD14"}, {"measurement": "conversion of homodimer by PDIA1", "setting": "[4]", "result": "monomeric band at 27 KDa"}]}]}
